# Experimental data taken from paper PMC6423188, “HYNIC and DOMA conjugated radiolabeled bombesin analogs as receptor-targeted probes for scintigraphic detection of breast tumor” (EJNMMI Research, 2019).
# Where a SMILES comes first, the peptide text is derived from it.
# How the values were obtained:
# physchem [1] = assay type: physicochemical; conditions: buffer or solvent, pH 7.4
# Description: In vitro radiochemical stability of ^99mTc-BN1/^99mTc-BN2/^99mTc-BN3 and ^99mTc-BN4, ^99mTc-BNS were assessed by incubating HPLC purified radiopeptides in phosphate buffer saline (PBS at pH 7.4) and freshly collected rat serum for 1–24 h at […]. Then, 90 μL of radiolabeled peptide ^99mTc-BN1/^99mTc-BN2/^99mTc-BN3/^99mTc-BN4/^99mTc-BNS solution were incubated under agitation at 37 °C with either 1.0 mL saline or fresh rat serum, and the mixtures were incubated at 37 °C for 24 h. Samples were periodically withdrawn from the mixture at 0, 2, 4, 6, 8, 12, and 24 h incubation period and analyzed by ITLC. In the case of rat serum, the aliquot was added to 100 μL 50% trifluoroacetic acid (TFA). After centrifugation (3000 rpm), the supernatant was analyzed by ITLC using acetone as the developing solvent; 10 μL of this mixture was taken at each time point, added to a strip ITLC whereby the percentage of ^99mTc-BN1/^99mTc-BN2/^99mTc-BN3/^99mTc-BN4/^99mTc-BNS was determined using gamma counter.
# In vitro stability of ^99mTc-labeled bombesin analogs incubated at 37 °C with either freshly collected rat serum or normal saline were monitored up to 24 h. […] The new radiolabeled peptide conjugates were stable up to 24 h post labeling period at room temperature, with no observable degradation or transchelation to serum proteins.
# in vitro = in vitro ADME; conditions: rat, serum
# Description: An aliquot (100 μL) of ^99mTc-BN1/^99mTc-BN2/^99mTc-BN3/^99mTc-BN4/^99mTc-BNS was added to 1 mL of freshly collected rat serum in centrifuge tube. The mixture was then incubated at 37 °C for 1 h; the serum protein was precipitated by adding 1 mL trichloroacetic acid (10%, V/V). The supernatant and precipitate were separated by centrifugation at 3000 rpm for 5 min. Radioactivities of both the phases were measured separately. The above experimental procedure was repeated three times. The percentage of protein binding was determined as: Plasma protein binding % = (precipitate counts (CPM) / [precipitate counts (CPM) + plasma counts (CPM)]) × 100%.
# [2] = test system: MDA-MB-231 tumor-bearing mice; assay: In vivo biodistribution; set-up: species or system mouse; conditions: BALB/c, mouse, in vivo, iv
# Description: All animal experiments were done according to the CSIR-IICB Animal Ethics Committee’s rules and regulation. Forty-eight hours before tumor cell implantation, an immunosuppressive drug (cyclosporine-A) was given intraperitoneal (i.p) at a concentration of 30 mg/kg/day. After that, MDA-MB-231 cells (5 × 10^6) 0.2 mL were implanted subcutaneously into the left flanks of the hind leg of BALB/c mice. Thereafter, the same dose of cyclosporine was given i.p. daily up to 2 weeks. Two weeks after inoculation of the tumor cells, when tumors reached ~ 0.5 cm in mean diameter, the tumor-bearing mice were used for biodistribution and imaging studies. Animals were monitored daily and their weights were recorded. Control group of mice received only 0.9 wt% saline. After cell implantation, the growth rate of the breast tumor followed a satisfactory pattern of spheroid shape and tumors are palpable within 2 to 4 weeks. MDA-MB-231 cell implanted mice tumor models were used for biodistribution and planar imaging studies of these radiolabeled new bombesin analogs.
# In tissue biodistribution studies, tumor-bearing animals were divided into four groups and well hydrated for 1 h by intraperitoneal administration of saline (0.9%, 2 mL). Three animals per groups were used for biodistribution studies. After that, the radiolabeled new bombesin analogs (^99mTc-BN) were injected intravenously in each animal of each group consequently through the tail vein [24–27]. After 5, 30, 60, and 120 min intravenous administrations of radiolabeled analogs, the animals were sacrificed; blood, heart, lung, liver, kidney, stomach, intestine, spleen, pancreas, brain, muscle, and tumor were excised, weighed, and counted for radioactivity. The organ uptake was calculated as a percentage of the injected activity per gram of wet tissue (%IA/g). In order to evaluate whether binding of bombesin analogs to MDA-MB-231 cells in vivo is specific; blocking studies with ^99mTc-labeled bombesin analogs in tumor-bearing mice were carried out. Groups of three animals were injected 0.03 nmol of ^99mTc-labeled BN analogs (2 MBq) with 25 nmol of non-radiolabeled BN peptide. After 60 min and 120 min, mice were sacrificed and the organs were collected. Each organ was weighed and counted in a gamma counter along with activity standard and percentage of injected activity per gram (%IA/g) of tissue was calculated for each type of tissues. Counts were corrected for background radiation and physical decay of the radioactivity. The uptake was expressed in the percentage of injected activity per gram of each organ (%IA/g). Data were analyzed statistically by the t test, with the level of significance set at P < 0.05.
# physchem [3] = assay type: physicochemical; conditions: pH 7.4
# Description: Lipophilicity of the HPLC-purified radiopeptide analogs was determined through octanol/water partition coefficients, determined at pH 7.4 by measuring the distribution of the HPLC purified radiolabeled peptides in 1-octanol and PBS. Then, 50 μL HPLC purified ^99mTc-BN1/^99mTc-BN2/^99mTc-BN3/^99mTc-BN4/^99mTc-BNS with 100 μCi of radiolabeled compound in PBS was added to a to a centrifuge tube containing 1 mL n-octanol and 1 mL PBS (0.025 M, pH 7.4). The tube was vortexed at room temperature for 2 min and they are centrifuged at 5000 rpm for 5 min to ensure complete separation of layers. Further, 100 μL of each phase was transferred into a separate pre-weighed vial and measured in the well γ-counter. The ratio of octanol layer counts to aqueous layer counts was expressed as the distribution coefficient (D, the appropriate descriptor for ionizable compounds) and logD was used for determination of lipophilicity. Counts per unit weight of the sample were calculated, and logD value as calculated as follows:
# log10D = log10 [(cpm in octanol – cpm in background) / (cpm in buffer – cpm in background)]
# Blood clearance studies = assay type: in vivo; conditions: mouse, i.v. tail vein
# Description: ^99mTc-labeled HYNIC/DOMA conjugated peptide analogs (1 mCi, 0.2 mL) were administered to well-hydrated mouse (n = 3) through tail vein and blood samples (20 μL each) were collected at preset time intervals (2, 5, 15, 30, 60, 90, and 120 min) in the tube. Each sample was weighed accurately, and associated radioactivity was counted in a gamma counter. The percentage injected activities per gram (%IA/g) in each blood sample at each time were determined, and the data were plotted as a function of the time interval to obtain the blood clearance curve of the radiopharmaceuticals.
smiles,measurement,setting,value
"CCCC[C@H](NC(=O)[C@@H](Cc1ccc(O)cc1)NC(=O)[C@H](Cc1c[nH]cn1)NC(=O)[C@H]1CCCN1C(=O)[C@@H](NC(=O)[C@H](C)NC(=O)[C@H](Cc1c[nH]c2ccccc12)NC(=O)[C@H](CCC(N)=O)NC(=O)CCCNC(=O)CN1CCNCCNCCNCC1)C(C)C)C(N)=O [99mTc-BN4, ^99mTc-DOMA-GABA-[Pro^11Tyr^13Nle^14]-BN(7-14)NH2, metal not drawn] (HELM PEPTIDE1{[O=C(CN1CCNCCNCCNCC1)[*:2]].[O=C(CCCN[*:1])[*:2]].Q.W.A.V.[dP].H.[dY].[Nle].[am]}$$$$V2.0)",remaining at 2 h,physchem [1],95.5 ± 0.03%
same,remaining at 4 h,physchem [1],95 ± 0.07%
same,remaining at 6 h,physchem [1],93.5 ± 0.12%
same,remaining at 8 h,physchem [1],92.5 ± 0.2%
same,remaining at 12 h,physchem [1],90 ± 0.11%
same,remaining at 24 h,physchem [1],88 ± 0.14%
same,fraction unbound at 1 h,in vitro,0.809
same,Liver uptake,[2]; 0.5 h,0.52 ± 0.13 %IA/g
same,Stomach uptake,[2]; 0.5 h,0.91 ± 0.04 %IA/g
same,Pancreas uptake,[2]; 1 h,1.98 ± 0.02 %IA/g
same,Stomach uptake,[2]; 2 h,0.20 ± 0.01 %IA/g
same,logD,physchem [3],-2.7
same,t1/2 in blood,Blood clearance studies,30 min
